In publication PMC10912200 (Nature Communications, 2024):
Numbering of substitutions follows the chain as printed.

T1: TcsH^2210-2618, His-tagged (Paeniclostridium sordellii, UniProt M9ZTT7 2210-2618)
T1 construct: not shown: His, C-terminal, kept
T1 sequence: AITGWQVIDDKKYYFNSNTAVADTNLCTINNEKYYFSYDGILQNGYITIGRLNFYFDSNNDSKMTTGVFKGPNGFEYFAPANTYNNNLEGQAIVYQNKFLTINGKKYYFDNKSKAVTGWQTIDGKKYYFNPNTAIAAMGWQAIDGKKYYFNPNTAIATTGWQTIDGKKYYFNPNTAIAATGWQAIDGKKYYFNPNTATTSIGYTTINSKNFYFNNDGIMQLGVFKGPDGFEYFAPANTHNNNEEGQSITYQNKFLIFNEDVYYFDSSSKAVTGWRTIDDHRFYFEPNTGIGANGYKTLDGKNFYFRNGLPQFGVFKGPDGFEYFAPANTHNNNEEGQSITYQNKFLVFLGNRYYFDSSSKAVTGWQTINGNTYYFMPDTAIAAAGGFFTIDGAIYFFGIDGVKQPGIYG

T2: MBP-fused TcsH^2236-2618 (Paeniclostridium sordellii, UniProt M9ZTT7 2236-2618)
T2 construct: source: E. coli BL21(DE3), purified (Amylose resin, SEC)
T2 sequence: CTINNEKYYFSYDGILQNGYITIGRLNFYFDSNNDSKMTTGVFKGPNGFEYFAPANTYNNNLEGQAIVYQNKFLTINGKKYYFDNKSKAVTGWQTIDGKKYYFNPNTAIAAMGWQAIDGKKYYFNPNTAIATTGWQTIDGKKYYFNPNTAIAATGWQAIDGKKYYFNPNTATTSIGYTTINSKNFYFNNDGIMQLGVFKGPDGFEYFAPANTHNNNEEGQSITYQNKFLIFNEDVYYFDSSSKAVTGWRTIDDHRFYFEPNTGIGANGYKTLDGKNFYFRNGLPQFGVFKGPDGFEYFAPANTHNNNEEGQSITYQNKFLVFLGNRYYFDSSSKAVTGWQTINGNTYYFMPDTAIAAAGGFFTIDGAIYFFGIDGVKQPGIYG

B1: Fc-His-TMPRSS2^ECD [change] (Fc fusion)
chain: WKFMGSKCSNSGIECDSSGTCINPSNWCDGVSHCPGGEDENRCVRLYGPNFILQVYSSQRKSWHPVCQDDWNENYGRAACRDMGYKNNFYSSQGIVDDSGSTSFMKLNTSAGNVDIYKKLYHSDACSSKAVVSLRCIACGVNLNSSRQSQIVGGESALPGAWPWQVSLHVQNVHVCGGSIITPEWIVTAAHCVEKPLNNPWHWTAFAGILRQSFMFYGAGYQVEKVISHPNYDSKTKNNDIALMKLQKPLTFNDLVKPVCLPNPGMMLQPEQLCWISGWGATEEKGKTSEVLNAAKVLLIETQRCNSRYVYANLITPAMICAGFLQGNVDSCQGDSGGPLVTSKNNIWWLIGDTSWGSGCAKAYRPGVYGNVMVFTDWIYRQMRADG
notes: source: Expi293F, transfected, purified from the supernatant (TALON resin, SEC)
B2: Fc-His-TMPRSS2^ECD [change] (Fc fusion)
chain: B1 chain with A312D, L314R
notes: as for B1
B3: Fc-His-TMPRSS2^ECD (Fc fusion)
chain: B1 chain with A312D
B4: Fc-His-TMPRSS2^ECD [change] (Fc fusion)
chain: B1 chain with V170R, A312D
notes: as for B1
B5: Fc-His-TMPRSS2^ECD [change] (Fc fusion)
chain: B1 chain with Q171A, A312D
notes: as for B1
B6: Fc-His-TMPRSS2^ECD [change] (Fc fusion)
chain: B1 chain with L197R, A312D
notes: as for B1
B7: Fc-His-TMPRSS2^ECD [change] (Fc fusion)
chain: B1 chain with H202A, A312D
notes: as for B1

What was measured:
Conditions in all cases: both partners purified
[1] = target: T1, TcsH^2210-2618, His-tagged; assay: pull-down
MBP-fused TcsH^2236-2618 = target: T2, MBP-fused TcsH^2236-2618; assay: BLI
[2] = target: T1, TcsH^2210-2618, His-tagged; assay: BLI

| Binder | binding result [1] | Kd (MBP-fused TcsH^2236-2618) | Kd [2] |
| --- | --- | --- | --- |
| B1 | binds | – | – |
| B2 | binds | – | – |
| B3 | – | 0.75 nM | 0.37 nM |
| B4 | binds | – | – |
| B5 | binds | – | – |
| B6 | binds | – | – |
| B7 | binds | – | – |
